According to PMC3787745, “Yeast Mnn9 is both a priming glycosyltransferase and an allosteric activator of mannan biosynthesis” (Open Biology, 2013):

Target: T1, ScVan1 (Saccharomyces cerevisiae Van1p glycosyltransferase domain, residues 87-535) (S. cerevisiae, UniProt P23642 87-535)
T1 construct: Van1p, S. cerevisiae S288c, lacking the first 86 amino acid residues (cytoplasmic domain, transmembrane domain and predicted disordered region); glycosyltransferase domain 87-535; Cloned into pNIFTY/MBP (MBP, hexahistidine, TEV site at the N-terminus); the tag was cleaved off with TEV protease; also called ScVan1p; V1; source: E. coli BL21(DE3) pLysS, purified (Ni-IMAC, TEV cleavage, anion …)
T1 sequence (looked up): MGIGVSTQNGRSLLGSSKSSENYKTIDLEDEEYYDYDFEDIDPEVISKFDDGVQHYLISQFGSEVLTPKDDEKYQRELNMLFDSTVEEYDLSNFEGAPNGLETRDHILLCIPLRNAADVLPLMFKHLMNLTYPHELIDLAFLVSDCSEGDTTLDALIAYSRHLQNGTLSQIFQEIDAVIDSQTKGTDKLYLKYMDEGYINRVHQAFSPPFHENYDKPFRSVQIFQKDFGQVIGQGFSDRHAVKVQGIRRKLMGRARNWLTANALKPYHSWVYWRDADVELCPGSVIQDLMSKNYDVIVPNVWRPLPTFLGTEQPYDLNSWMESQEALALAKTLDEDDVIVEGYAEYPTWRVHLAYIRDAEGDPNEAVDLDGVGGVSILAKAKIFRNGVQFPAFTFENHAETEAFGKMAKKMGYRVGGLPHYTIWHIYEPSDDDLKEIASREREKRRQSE
Test: BLI; Octet RED384; biotinylated ScMnn9 bound at 25 µg/ml to streptavidin sensors; ScVan1 at 0 to 15 µM in buffer C (100 mM HEPES pH 7.5, 5 mM MnCl2, 1 mg/ml BSA, 0.015% BRIJ 35); association 10 min, dissociation 20 min; triplicate, full kinetic fit
Conditions: both partners purified

Kd: 480 nM
koff: 0.00032 s⁻¹
kon: 620 M⁻¹ s⁻¹
B1: ScMnn9 (Saccharomyces cerevisiae Mnn9p glycosyltransferase core, residues 93-395) (domain or fragment, S. cerevisiae, UniProt P39107 93-395, looked up)
chain: EGHIAHYDLNKLHSTSEAAVNKEHILILTPMQTFHQQYWDNLLQLNYPRELIELGFITPRTATGDLALKKLENAIKKVQTDKKTQRFSKITILRQNSQSFDKLMEKERHALDVQKERRAAMALARNELLFSTIGPHTSWVLWLDADIIETPPSLIQDMTKHNKAILAANIYQRFYDEEKKQPSIRPYDFNNWQESDTGLEIASQMGDDEIIVEGYAEIATYRPLMAHFYDANGVPGEEMALDGVGGGCTLVKAEVHRDGAMFPNFPFYHLIETEGFAKMAKRLNYDVFGLPNYLVYHIEEENH
modifications: biotinylated with EZ-link NHS-PEG4-Biotin
notes: Mnn9p, S. cerevisiae S288c, lacking the first 92 amino acid residues (cytoplasmic domain, transmembrane domain and predicted disordered region); glycosyltransferase core 93-395; Cloned into pNIFTY/MBP (MBP, hexahistidine, TEV site at the N-terminus); PDB 3ZF8 holds the D236N mutant of the same limits; also called ScMnn9p; M9; source: E. coli BL21(DE3) pLysS, purified (Ni-IMAC, TEV cleavage, anion …)
